Numbering of substitutions follows the chain as printed.
target: T1, LIN7C, Q9NUP9; assay: holdup assay; design: key: below the threshold = too weak to quantify, mostly under pKd 3.1 to 4; conditions: plain residues with an end cap or a label only (N-terminal biotin on a linker: ado-ado)
T1 sequence (Q9NUP9 88-185, limits assumed, looked up): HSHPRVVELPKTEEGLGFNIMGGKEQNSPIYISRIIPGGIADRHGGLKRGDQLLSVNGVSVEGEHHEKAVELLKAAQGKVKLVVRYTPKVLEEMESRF

Row | Binder | pKd
1 | YRLAQESGLV [ABCC6, O95255] | 4.01
2 | LKVPPEERLI [CRB2, Q5IJ48] | below the threshold

target: T2, MPP2, Q14168; assay: holdup assay; design: key: below the threshold = too weak to quantify, mostly under pKd 3.1 to 4; conditions: plain residues with an end cap or a label only (N-terminal biotin on a linker: ado-ado)
T2 sequence (Q14168 180-250, limits assumed, looked up): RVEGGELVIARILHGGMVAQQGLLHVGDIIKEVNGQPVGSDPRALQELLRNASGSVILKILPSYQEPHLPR

Row | Binder | pKd
3 | YRLAQESGLV [ABCC6, O95255] | below the threshold
4 | LKVPPEERLI [CRB2, Q5IJ48] | below the threshold

target: T3, PDZD2_2, O15018; assay: holdup assay; design: key: below the threshold = too weak to quantify, mostly under pKd 3.1 to 4; conditions: plain residues with an end cap or a label only (N-terminal biotin on a linker: ado-ado)
T3 sequence (O15018 329-429, limits assumed, looked up): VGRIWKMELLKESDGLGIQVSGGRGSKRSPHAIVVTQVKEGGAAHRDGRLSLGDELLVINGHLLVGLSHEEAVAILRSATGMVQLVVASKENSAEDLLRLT

Row | Binder | pKd
5 | YRLAQESGLV [ABCC6, O95255] | 3.51
6 | LKVPPEERLI [CRB2, Q5IJ48] | below the threshold

target: T4, LIN7B, Q9HAP6; assay: holdup assay; design: key: below the threshold = too weak to quantify, mostly under pKd 3.1 to 4; conditions: plain residues with an end cap or a label only (N-terminal biotin on a linker: ado-ado)
T4 sequence (Q9HAP6 88-185, limits assumed, looked up): T1 sequence (Q9NUP9 88-185, limits assumed, looked up) with S2A, E13D, I35V, I40V, H65Q, K79S, K89R, S96A

Row | Binder | pKd
7 | YRLAQESGLV [ABCC6, O95255] | below the threshold
8 | LKVPPEERLI [CRB2, Q5IJ48] | below the threshold

target: Inadl_1, Q8NI35; assay: holdup assay; design: key: below the threshold = too weak to quantify, mostly under pKd 3.1 to 4; conditions: plain residues with an end cap or a label only (N-terminal biotin on a linker: ado-ado)
Sequence (Q8NI35 113-229): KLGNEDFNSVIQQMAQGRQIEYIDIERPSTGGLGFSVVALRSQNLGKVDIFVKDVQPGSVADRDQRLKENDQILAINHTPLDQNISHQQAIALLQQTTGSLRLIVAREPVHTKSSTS

Row | Binder | pKd
9 | YRLAQESGLV [ABCC6, O95255] | below the threshold
10 | LKVPPEERLI [CRB2, Q5IJ48] | below the threshold

target: T5, FRMPD1, Q5SYB0; assay: holdup assay; design: key: below the threshold = too weak to quantify, mostly under pKd 3.1 to 4; conditions: plain residues with an end cap or a label only (N-terminal biotin on a linker: ado-ado)
T5 sequence (Q5SYB0 52-145, limits assumed, looked up): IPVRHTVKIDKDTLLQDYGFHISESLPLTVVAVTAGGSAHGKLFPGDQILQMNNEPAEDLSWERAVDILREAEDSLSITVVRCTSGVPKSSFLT

Row | Binder | pKd
11 | YRLAQESGLV [ABCC6, O95255] | below the threshold
12 | LKVPPEERLI [CRB2, Q5IJ48] | below the threshold

target: GRID2IP_1, A4D2P6; assay: holdup assay; design: key: below the threshold = too weak to quantify, mostly under pKd 3.1 to 4; conditions: plain residues with an end cap or a label only (N-terminal biotin on a linker: ado-ado)
Sequence (A4D2P6 1-87): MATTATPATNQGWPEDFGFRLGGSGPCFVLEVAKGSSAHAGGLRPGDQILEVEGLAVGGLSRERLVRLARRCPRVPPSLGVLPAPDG

Row | Binder | pKd
13 | YRLAQESGLV [ABCC6, O95255] | below the threshold
14 | LKVPPEERLI [CRB2, Q5IJ48] | below the threshold

target: T6, HTRA4, P83105; assay: holdup assay; design: key: below the threshold = too weak to quantify, mostly under pKd 3.1 to 4; conditions: plain residues with an end cap or a label only (N-terminal biotin on a linker: ado-ado)
T6 sequence (P83105 378-476, limits assumed, looked up): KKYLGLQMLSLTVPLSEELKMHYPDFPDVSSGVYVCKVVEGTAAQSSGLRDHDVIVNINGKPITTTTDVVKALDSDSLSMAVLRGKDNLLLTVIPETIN

Row | Binder | pKd
15 | YRLAQESGLV [ABCC6, O95255] | 3.79
16 | LKVPPEERLI [CRB2, Q5IJ48] | below the threshold

target: MAGI2_5, Q86UL8; assay: holdup assay; design: key: below the threshold = too weak to quantify, mostly under pKd 3.1 to 4; conditions: plain residues with an end cap or a label only (N-terminal biotin on a linker: ado-ado)
Sequence (Q86UL8 915-1017): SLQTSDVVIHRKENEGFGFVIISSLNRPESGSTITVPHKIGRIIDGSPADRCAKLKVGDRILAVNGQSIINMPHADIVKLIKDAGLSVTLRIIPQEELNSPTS

Row | Binder | pKd
17 | YRLAQESGLV [ABCC6, O95255] | 3.61
18 | LKVPPEERLI [CRB2, Q5IJ48] | below the threshold

target: DLG4_1, P78352; assay: holdup assay; design: key: below the threshold = too weak to quantify, mostly under pKd 3.1 to 4; conditions: plain residues with an end cap or a label only (N-terminal biotin on a linker: ado-ado)
Sequence (P78352 62-152): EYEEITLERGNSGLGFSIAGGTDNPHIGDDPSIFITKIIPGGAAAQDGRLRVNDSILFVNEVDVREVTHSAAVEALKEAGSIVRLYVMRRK

Row | Binder | pKd
19 | YRLAQESGLV [ABCC6, O95255] | below the threshold
20 | LKVPPEERLI [CRB2, Q5IJ48] | below the threshold

target: Inadl_9, Q8NI35; assay: holdup assay; design: key: below the threshold = too weak to quantify, mostly under pKd 3.1 to 4; conditions: plain residues with an end cap or a label only (N-terminal biotin on a linker: ado-ado)
Sequence (Q8NI35 1530-1615): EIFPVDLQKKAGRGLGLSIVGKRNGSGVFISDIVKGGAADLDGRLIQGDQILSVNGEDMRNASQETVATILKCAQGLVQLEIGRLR

Row | Binder | pKd
21 | YRLAQESGLV [ABCC6, O95255] | below the threshold
22 | LKVPPEERLI [CRB2, Q5IJ48] | below the threshold

target: T7, DVL3, Q92997; assay: holdup assay; design: key: below the threshold = too weak to quantify, mostly under pKd 3.1 to 4; conditions: plain residues with an end cap or a label only (N-terminal biotin on a linker: ado-ado)
T7 sequence (Q92997 244-331, limits assumed, looked up): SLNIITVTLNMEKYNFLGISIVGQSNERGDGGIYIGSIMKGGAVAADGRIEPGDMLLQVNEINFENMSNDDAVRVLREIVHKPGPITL

Row | Binder | pKd
23 | YRLAQESGLV [ABCC6, O95255] | below the threshold
24 | LKVPPEERLI [CRB2, Q5IJ48] | below the threshold

target: Inadl_8, Q8NI35; assay: holdup assay; design: key: below the threshold = too weak to quantify, mostly under pKd 3.1 to 4; conditions: plain residues with an end cap or a label only (N-terminal biotin on a linker: ado-ado)
Sequence (Q8NI35 1425-1530): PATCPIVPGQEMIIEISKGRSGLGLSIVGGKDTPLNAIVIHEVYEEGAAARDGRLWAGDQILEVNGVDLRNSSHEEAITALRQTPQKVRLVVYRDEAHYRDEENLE

Row | Binder | pKd
25 | YRLAQESGLV [ABCC6, O95255] | below the threshold
26 | LKVPPEERLI [CRB2, Q5IJ48] | below the threshold

target: ARHGEF12, Q9NZN5-2; assay: holdup assay; design: key: below the threshold = too weak to quantify, mostly under pKd 3.1 to 4; conditions: plain residues with an end cap or a label only (N-terminal biotin on a linker: ado-ado)
Sequence (Q9NZN5 other isoform, or with tags, fused parts or gaps): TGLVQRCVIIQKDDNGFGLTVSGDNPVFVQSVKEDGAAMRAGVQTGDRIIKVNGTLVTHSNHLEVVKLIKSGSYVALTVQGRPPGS

Row | Binder | pKd
27 | YRLAQESGLV [ABCC6, O95255] | below the threshold
28 | LKVPPEERLI [CRB2, Q5IJ48] | below the threshold

target: FRMPD2_1, Q68DX3; assay: holdup assay; design: key: below the threshold = too weak to quantify, mostly under pKd 3.1 to 4; conditions: plain residues with an end cap or a label only (N-terminal biotin on a linker: ado-ado)
Sequence (Q68DX3 770-861): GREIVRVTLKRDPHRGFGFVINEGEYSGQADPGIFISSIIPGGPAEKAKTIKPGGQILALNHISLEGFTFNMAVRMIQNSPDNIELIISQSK

Row | Binder | pKd
29 | YRLAQESGLV [ABCC6, O95255] | below the threshold
30 | LKVPPEERLI [CRB2, Q5IJ48] | below the threshold

target: NHERF4_1, Q86UT5-2; assay: holdup assay; design: key: below the threshold = too weak to quantify, mostly under pKd 3.1 to 4; conditions: plain residues with an end cap or a label only (N-terminal biotin on a linker: ado-ado)
Sequence (Q86UT5 other isoform, or with tags, fused parts or gaps): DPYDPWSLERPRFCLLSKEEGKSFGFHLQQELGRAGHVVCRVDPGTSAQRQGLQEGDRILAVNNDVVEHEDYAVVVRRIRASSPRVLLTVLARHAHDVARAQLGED

Row | Binder | pKd
31 | YRLAQESGLV [ABCC6, O95255] | 3.51
32 | LKVPPEERLI [CRB2, Q5IJ48] | below the threshold

target: Inadl_6, Q8NI35; assay: holdup assay; design: key: below the threshold = too weak to quantify, mostly under pKd 3.1 to 4; conditions: plain residues with an end cap or a label only (N-terminal biotin on a linker: ado-ado)
Sequence (Q8NI35 1058-1167): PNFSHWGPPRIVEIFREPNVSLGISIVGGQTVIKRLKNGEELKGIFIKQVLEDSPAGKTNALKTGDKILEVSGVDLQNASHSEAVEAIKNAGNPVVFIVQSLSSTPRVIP

Row | Binder | pKd
33 | YRLAQESGLV [ABCC6, O95255] | below the threshold
34 | LKVPPEERLI [CRB2, Q5IJ48] | below the threshold

target: IL16_4, Q14005; assay: holdup assay; design: key: below the threshold = too weak to quantify, mostly under pKd 3.1 to 4; conditions: plain residues with an end cap or a label only (N-terminal biotin on a linker: ado-ado)
Sequence (Q14005 1229-1329): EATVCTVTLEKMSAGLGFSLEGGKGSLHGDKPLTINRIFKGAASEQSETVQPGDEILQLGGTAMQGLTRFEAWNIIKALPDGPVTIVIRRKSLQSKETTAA

Row | Binder | pKd
35 | YRLAQESGLV [ABCC6, O95255] | below the threshold
36 | LKVPPEERLI [CRB2, Q5IJ48] | below the threshold

target: T8, PDZD7_3, Q9H5P4; assay: holdup assay; design: key: below the threshold = too weak to quantify, mostly under pKd 3.1 to 4; conditions: plain residues with an end cap or a label only (N-terminal biotin on a linker: ado-ado)
T8 sequence (Q9H5P4 857-944, limits assumed, looked up): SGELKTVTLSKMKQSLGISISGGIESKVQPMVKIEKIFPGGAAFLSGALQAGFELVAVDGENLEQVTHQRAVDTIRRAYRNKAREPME

Row | Binder | pKd
37 | YRLAQESGLV [ABCC6, O95255] | 4.01
38 | LKVPPEERLI [CRB2, Q5IJ48] | below the threshold

target: Inadl_3, Q8NI35; assay: holdup assay; design: key: below the threshold = too weak to quantify, mostly under pKd 3.1 to 4; conditions: plain residues with an end cap or a label only (N-terminal biotin on a linker: ado-ado)
Sequence (Q8NI35 359-469): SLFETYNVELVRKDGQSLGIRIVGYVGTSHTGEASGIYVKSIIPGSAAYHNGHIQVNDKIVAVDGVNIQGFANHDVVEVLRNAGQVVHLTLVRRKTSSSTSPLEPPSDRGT

Row | Binder | pKd
39 | YRLAQESGLV [ABCC6, O95255] | below the threshold
40 | LKVPPEERLI [CRB2, Q5IJ48] | 3.6

target: LNX1_3, Q8TBB1; assay: holdup assay; design: key: below the threshold = too weak to quantify, mostly under pKd 3.1 to 4; conditions: plain residues with an end cap or a label only (N-terminal biotin on a linker: ado-ado)
Sequence (Q8TBB1 500-596): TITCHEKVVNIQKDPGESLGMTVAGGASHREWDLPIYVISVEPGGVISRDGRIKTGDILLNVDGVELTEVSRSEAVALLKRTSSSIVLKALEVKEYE

Row | Binder | pKd
41 | YRLAQESGLV [ABCC6, O95255] | below the threshold
42 | LKVPPEERLI [CRB2, Q5IJ48] | below the threshold

target: MAST2, Q6P0Q8; assay: holdup assay; design: key: below the threshold = too weak to quantify, mostly under pKd 3.1 to 4; conditions: plain residues with an end cap or a label only (N-terminal biotin on a linker: ado-ado)
Sequence (Q6P0Q8 1099-1202): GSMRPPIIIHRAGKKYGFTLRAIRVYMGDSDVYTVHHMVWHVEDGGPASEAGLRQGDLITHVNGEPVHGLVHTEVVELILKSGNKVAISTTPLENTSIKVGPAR

Row | Binder | pKd
43 | YRLAQESGLV [ABCC6, O95255] | 4.1
44 | LKVPPEERLI [CRB2, Q5IJ48] | 4.3

target: T9, APBA3_1, O96018; assay: holdup assay; design: key: below the threshold = too weak to quantify, mostly under pKd 3.1 to 4; conditions: plain residues with an end cap or a label only (N-terminal biotin on a linker: ado-ado)
T9 sequence (O96018 389-490, limits assumed, looked up): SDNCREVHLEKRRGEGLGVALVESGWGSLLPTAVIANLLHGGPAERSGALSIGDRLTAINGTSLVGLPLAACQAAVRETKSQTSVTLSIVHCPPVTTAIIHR

Row | Binder | pKd
45 | YRLAQESGLV [ABCC6, O95255] | below the threshold
46 | LKVPPEERLI [CRB2, Q5IJ48] | below the threshold

target: T10, LNX2_3, Q8N448; assay: holdup assay; design: key: below the threshold = too weak to quantify, mostly under pKd 3.1 to 4; conditions: plain residues with an end cap or a label only (N-terminal biotin on a linker: ado-ado)
T10 sequence (Q8N448 463-564, limits assumed, looked up): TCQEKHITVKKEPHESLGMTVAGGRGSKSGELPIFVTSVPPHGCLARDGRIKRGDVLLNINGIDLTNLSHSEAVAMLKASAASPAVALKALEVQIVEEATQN

Row | Binder | pKd
47 | YRLAQESGLV [ABCC6, O95255] | below the threshold
48 | LKVPPEERLI [CRB2, Q5IJ48] | below the threshold

target: T11, GRIP1_4, Q9Y3R0; assay: holdup assay; design: key: below the threshold = too weak to quantify, mostly under pKd 3.1 to 4; conditions: plain residues with an end cap or a label only (N-terminal biotin on a linker: ado-ado)
T11 sequence (Q9Y3R0 467-571, limits assumed, looked up): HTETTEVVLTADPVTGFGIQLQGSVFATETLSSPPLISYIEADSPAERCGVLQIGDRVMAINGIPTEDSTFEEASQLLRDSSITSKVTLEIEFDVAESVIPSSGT

Row | Binder | pKd
49 | YRLAQESGLV [ABCC6, O95255] | below the threshold
50 | LKVPPEERLI [CRB2, Q5IJ48] | below the threshold

target: NHERF4_4, Q86UT5; assay: holdup assay; design: key: below the threshold = too weak to quantify, mostly under pKd 3.1 to 4; conditions: plain residues with an end cap or a label only (N-terminal biotin on a linker: ado-ado)
Sequence (Q86UT5 464-550): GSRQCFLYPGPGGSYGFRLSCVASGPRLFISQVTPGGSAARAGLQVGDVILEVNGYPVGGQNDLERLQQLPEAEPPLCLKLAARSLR

Row | Binder | pKd
51 | YRLAQESGLV [ABCC6, O95255] | below the threshold
52 | LKVPPEERLI [CRB2, Q5IJ48] | below the threshold
